Measured values taken from US20170081417A1 (Kyowa Kirin, published 2017).
No end group written: not given here.

Key:
[1] = molecular target: T1, human OX40 (CD134), full length, expressed on cells (activated human T cells); EL4-OX40 and CHO-OX40 … (human, UniProt P43489 29-277); test: cell-based or functional assay
T1 sequence: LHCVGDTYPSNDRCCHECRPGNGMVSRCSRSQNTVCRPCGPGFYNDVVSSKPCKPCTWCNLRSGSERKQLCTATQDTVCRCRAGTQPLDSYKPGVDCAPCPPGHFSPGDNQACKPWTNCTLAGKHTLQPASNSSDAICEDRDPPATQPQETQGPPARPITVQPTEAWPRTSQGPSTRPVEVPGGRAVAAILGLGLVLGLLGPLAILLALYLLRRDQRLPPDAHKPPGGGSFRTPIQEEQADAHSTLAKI

[2] = molecular target: T2, human OX40 extracellular domain fused to the Fc portion of human IgG1 (hOX40:hFc) (human); test: ELISA, blocking of OX40L-FLAG binding to coated hOX40:hFc
T2 construct: Made in Tn5 insect cells; also called OX40-hIgG1; human OX40:hIgG1 fusion protein
Protocol: (§1) The ability of 112F32, 112V8, 112Y131, 112Y55, and 112Z5 to block soluble hOX40L binding to coated hOX40:hFc fusion protein was tested using an ELISA protocol (FIG. 5A, Table 3). The plates were coated with hOX40:hFc and after blocking non-specific sites the anti-OX40 antibodies were allowed to bind. Without washing OX40L-FLAG was added to the wells. Bound ligand was detected with anti-FLAG-HRP secondary antibody. Percent inhibition was determined using the following formula (100−(OD sample/OD maximum OX40L binding))*100. 112V8, 112Y55, and 112Y131 prevented 85% of the binding of soluble OX40L to hOX40:hFc. 112F32 prevented approximately 70% of the binding of soluble hOX40L to hOX40:hFc and 112Z5 blocked 67% of the maximal binding.

[3] = molecular target: T1, human OX40 (CD134), full length, …; test: flow cytometry titration on activated human T cells, anti-human IgG-PE
Protocol: (§2) Following twenty minute incubation on ice, the cells were washed once and fixed ten minutes with 1% paraformaldehyde. After a final wash the cells were resuspended in staining buffer and the samples were acquired using FACScan or FACS Calibur flow cytometers (Becton Dickinson Biosciences, Palo Alto, Calif.), and the data were analyzed using Cellquest (Becton Dickinson Biosciences) or Flow Jo (TreeStar, Inc., San Carlos, Calif.) software. The activated T cells were also stained with mouse anti-human OX40 antibody L106 (Becton Dickinson), which was directly conjugated to phycoerythrin or whose binding was detected with anti-mouse IgG-PE (Southern Biotechnology Associates.) OX40L Blocking Assays: To determine if the anti-human OX40 antibodies could block OX40L binding to soluble OX40 both ELISA and flow cytometric protocols were used. In the ELISA 96 well Nunc flat bottom plates were coated with recombinant soluble hOX40:hFc at 2 μg/ml in carbonate buffer (pH9.4) for one hour at 37° C. The plates were washed with PBS/0.1% Tween 20 and Superblock (Pierce) was added to the wells to block non-specific binding. The test antibodies were diluted to 1 μg/ml in PBS/Tween and added to the plates. After one hour incubation at 37° C., FLAG tagged recombinant soluble human OX40L (Alexis Biochemicals, San Diego, Calif.) was added to the appropriate wells without washing out the anti-OX40 antibodies. Following one hour incubation, the plates were washed and an anti-FLAG-peroxidase conjugated antibody (Sigma) was added to the wells for one hour at 37° C. The TMB substrate was added, after ten minutes the reaction was stopped with H₂SO₄, and the results were read at 450 nm using a microplate reader. In the flow cytometric assay, human CD4+ T cells were purified and activated with PHA+IL2 for two days. The cells were washed and resuspended in staining buffer and then incubated with increasing amounts of human anti-human OX40 antibodies for twenty minutes on ice, from 0.005-50 μg/ml. Soluble recombinant OX40L-FLAG was then added to the cells. The cells were washed and incubated with anti-FLAG conjugated to PE (Sigma). After another wash, the cells were fixed with 1% paraformaldehyde and analyzed on a FACScan or FACScalibur.

[4] = molecular target: T2, human OX40 extracellular domain fused …; test: ELISA, OX40L-FLAG binding to coated hOX40:hFc, anti-FLAG-HRP
Protocol: as §1

[5] = molecular target: T1, human OX40 (CD134), full length, …; test: flow cytometry, blocking of OX40L-FLAG binding to activated human T cells
Source text: as §2, with “The” for “Following twenty minute incubation on ice, the cells were washed once and fixed ten minutes with 1% paraformaldehyde. After a final wash the cells were resuspended in staining buffer and the samples were acquired using FACScan or FACS Calibur flow cytometers (Becton Dickinson Biosciences, Palo Alto, Calif.), and the data were analyzed using Cellquest (Becton Dickinson Biosciences) or Flow Jo (TreeStar, Inc., San Carlos, Calif.) software. The”
(§3) Slightly different results were obtained when a flow cytometric based assay was used to monitor blockade of soluble OX40L binding to activated human T cells that express OX40 (FIG. 5B). Activated human T cells were labeled with anti-OX40 antibodies followed by soluble flag tagged-human OX40L. Binding of OX40L was detected with anti-FLAG-PE antibody. Percent inhibition was determined using the same formula, i.e., (100−(sample/maximum binding))*100.

[6] = molecular target: T3, human OX40 peptide 112A (human, also: conjugated to KLH via maleimide linker); test: ELISA on coated KLH-conjugated peptide
T3 peptide: RPAGPGFYNDVVSSKPC
Protocol: (§4) Antibody titers, specificity, and production by hybridomas were determined by ELISA. In brief, 96 well flat bottom plates were coated with 50 μl of hOX40:hFc at 5 μg/ml in carbonate buffer (pH 9.4) overnight at 4° C. or at 37° C. for one hour. After washing twice with PBS/0.1% Tween 20, plates were blocked with PBS/1% BSA/0.1% Tween20 at 37° C. for one hour. The serum, supernatant, or purified antibody was diluted in blocking buffer, added to the wells, and the plates were incubated for one hour at 37° C. The plates were washed four times with PBS/0.1% Tween 20 and the peroxidase conjugated sheep anti-human kappa detection antibody (The Binding Site, Birmigham, UK) was added at a dilution of 1:2000. Following one hour incubation at 37° C., the plates were washed and the TMB (Sigma) substrate was added and incubated at room temperature for ten to thirty minutes. The reaction was stopped with H₂SO₄ (LabChem) and the optical density was measured at 450 nm by a microplate reader.
(§5) The peptides were generated by A & A Lab, LLC and conjugated to keyhole limpet hemocyanin (“KLH”) with a maleimide linker following the manufacturer's instructions (Pierce). The peptides were coated at 10 μg/ml in carbonate buffer to 96 well Maxisorp ELISA plates (Nunc) at 4° C. overnight. The plate was washed with PBS/0.1% Tween 20 and then blocked with Casein buffer (Pierce) for three hours at room temperature. Candidate antibodies were added at 10 μg/ml diluted in 10% Casein in PBS/0.1% Tween 20. The remainder of the ELISA was performed as described for the OX40 specific antibody detection ELISA.

[7] = molecular target: T4, human OX40 peptide 112C (human, also: conjugated to KLH via maleimide linker); test: ELISA on coated KLH-conjugated peptide
T4 peptide: LAGKHTLQPASNSSDAIC
Protocol: as §4, §5

[8] = molecular target: T5, human OX40 peptide 112B (human, also: conjugated to KLH via maleimide linker); test: ELISA on coated KLH-conjugated peptide
T5 peptide: RAGTQPLDSYKPGVDC
Protocol: as §4, §5

[9] = molecular target: T1, human OX40 (CD134), full length, …; test: flow cytometry, blocking of OX40L-FLAG binding to activated human T cells; footnote: not inhibitory at 50 µg/ml
Source text: The activated T cells were also stained with mouse anti-human OX40 antibody L106 (Becton Dickinson), which was directly conjugated to phycoerythrin or whose binding was detected with anti-mouse IgG-PE (Southern Biotechnology Associates.) OX40L Blocking Assays: To determine if the anti-human OX40 antibodies could block OX40L binding to soluble OX40 both ELISA and flow cytometric protocols were used. In the ELISA 96 well Nunc flat bottom plates were coated with recombinant soluble hOX40:hFc at 2 μg/ml in carbonate buffer (pH9.4) for one hour at 37° C. The plates were washed with PBS/0.1% Tween 20 and Superblock (Pierce) was added to the wells to block non-specific binding. The test antibodies were diluted to 1 μg/ml in PBS/Tween and added to the plates. […] The TMB substrate was added, after ten minutes the reaction was stopped with H₂SO₄, and the results were read at 450 nm using a microplate reader. […] After another wash, the cells were fixed with 1% paraformaldehyde and analyzed on a FACScan or FACScalibur.
as §3, with “Activated human T cells were labeled with anti-OX40 antibodies followed by soluble flag tagged-human OX40L.” left out

B1: recombinant 112V8G1 antibody (112V8 variable regions in human IgG1) (antibody, V domains shown)
VH: QITLKESGPTLVKPKQTLTLTCTFSGFSLSTSGMGVGWIRQPPGKALEWLAVIYWDDHQLYSPSLKSRLTITKDTSKNQVVLTMTNMDPVDTATYYCAHRRGAFQHWGQGTLVTVSS
VL: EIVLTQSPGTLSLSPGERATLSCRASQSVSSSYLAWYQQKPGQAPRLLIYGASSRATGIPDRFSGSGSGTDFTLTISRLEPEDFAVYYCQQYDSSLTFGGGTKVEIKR
B1 was tested, and the “ADCC % Lysis at 10 µg/ml” value [1] was 55.6%.

B2: recombinant 112V8 IgG4PE antibody (112V8G4PE) (antibody, V domains shown)
VH: B1 VH
VL: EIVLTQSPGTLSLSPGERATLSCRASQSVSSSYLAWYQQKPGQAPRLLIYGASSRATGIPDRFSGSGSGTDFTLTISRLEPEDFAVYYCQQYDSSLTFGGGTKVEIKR
With B2 the “ADCC % Lysis at 10 µg/ml” value [1] was 18%.

B3: 112V8 human anti-human OX40 monoclonal antibody (hybridoma ATCC No. PTA-7219) (antibody, IgG4, V domains shown)
VH: B1 VH
VL: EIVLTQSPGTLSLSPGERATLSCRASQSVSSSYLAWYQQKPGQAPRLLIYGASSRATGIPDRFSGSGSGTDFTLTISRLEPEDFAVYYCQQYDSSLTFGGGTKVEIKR
With B3 the IC50 [2] was 0.051 µg/mL, the “BMAX Geo Mean” value [3] was 181 geometric mean fluorescence and the Kd [3] was 36 nM. The “percent inhibition of OX40L binding” value [4] was 85%, the IC50 [5] was 0.62 µg/mL and the binding result [6] was “no binding (tested: 10 µg/ml)”. B3: no binding (tested: 10 µg/ml) [7]; no binding (tested: 10 µg/ml) [8].

B4: 112Z5 human anti-human OX40 monoclonal antibody (hybridoma ATCC No. PTA-7216) (antibody, V domains shown)
VH: VVSTQSTGGGLVQPGRSLRLSCAASGFTLDDYGMHWVRQAPGKGLEWVSGISWNSDSIGYVDSVKGRFTISRDNAKNSLYLQMNSLRVEDTALYYCVKDISGWYSFDYWGQGTLVTVSS
VL: EIVLTQSPATLSLSPGERATLSCRASQSVSSYLAWYQQKPGQAPRLLIYDASNRATGIPARFSGSGSGTDFTLTISSLEPEDFAVYYCQQRSNWPITFGQGTRLEIK
For B4, the IC50 [2] was 0.081 µg/mL, the “BMAX Geo Mean” value [3] was 118 geometric mean fluorescence and the Kd [3] was 11 nM. The “percent inhibition of OX40L binding” value [4] was 67%, the IC50 [5] was 14.7 µg/mL and the “ADCC % Lysis at 10 µg/ml” value [1] was 35%.

B5: recombinant 112F32G1 antibody (112F32 variable regions in human IgG1) (antibody, V domains shown)
VH: GVQLVESGGGLVQPGGSLRLSCAASGFTFSSYSMNWVRQAPGKGLEWVSYISSSSSTIYYADSVKGRFTISRDNAKNSLYLQMNSLRDEDTAVYYCARGVYHNGWSFFDYWGQGTLLTVSS
VL: DIQMTQSPSSLSASVGNRVTITCRASQDISSWLAWYQQKPEKAPKSLIYAASSLQSGVPSRFSGSGSGTDFTLTISSLQPEDFATYYCQQYNSYPLTFGQGTRLEIKR
In the case of B5, the “ADCC % Lysis at 10 µg/ml” value [1] is reported as 37%.

B6: 112F32 human anti-human OX40 monoclonal antibody (hybridoma ATCC No. PTA-7217) (antibody, V domains shown)
VH: B5 VH
VL: B5 VL
With B6 the IC50 [9] was over 50 µg/mL, the IC50 [2] was 0.65 µg/mL and the “BMAX Geo Mean” value [3] was 104 geometric mean fluorescence. For the same binder, the Kd [3] was 13 nM, the “percent inhibition of OX40L binding” value [4] was about 70% and the binding result [6] was “no binding (tested: 10 µg/ml)”. B6: no binding (tested: 10 µg/ml) [7]; no binding (tested: 10 µg/ml) [8].
